Patent US20240018184A1

Legend:
[1] = target: human polyclonal IgG (Gammanorm) (human); experiment: pH gradient elution (citrate pH 6-3) from column
[2] = target: Cy5-hIgG (Cy5-labelled human immunoglobulin G) (human); experiment: confocal microscopy of beads with Cy5-hIgG, after 8 h in 2 M NaOH
[3] = target: Cy5-hIgG (Cy5-labelled human immunoglobulin G) (human); experiment: confocal microscopy of beads with Cy5-hIgG, after 16 h in 1 M NaOH
[4] = target: mAb (sample of Example 11, 4.28 mg/ml); experiment: load volume to 35% breakthrough, PCC columns, CIP with 2 M NaOH

Substance | Elution pH (peak 1) [1] [pH] | Elution pH (peak 2) [1] [pH] | Ig-binding capacity lost [2] [%] | binding capacity lost [3] [%] | original capacity remaining [4] [%]
Zvar(Q9A, N11E, Q40V, A42K, N43A, L44I)6 (designed binder) | 4.24 | 3.81 |  |  | 
MabSelect SuRe LX (ligand of the commercial reference matrix) | 4.01 | 3.7 | 50 | 50 | 
MabSelect SuRe (ligand of the commercial reference matrix) |  |  |  |  | < 80
